US20230136252A1 (NANJING LEGEND BIOTECH, published 2023)

T1: recombinant human GPC5-His (human, UniProt P78333 25-551, limits assumed)
T1 construct: Bought protein; also called RD System Cat #2607-G5/CF; not shown: His tag
T1 sequence (looked up): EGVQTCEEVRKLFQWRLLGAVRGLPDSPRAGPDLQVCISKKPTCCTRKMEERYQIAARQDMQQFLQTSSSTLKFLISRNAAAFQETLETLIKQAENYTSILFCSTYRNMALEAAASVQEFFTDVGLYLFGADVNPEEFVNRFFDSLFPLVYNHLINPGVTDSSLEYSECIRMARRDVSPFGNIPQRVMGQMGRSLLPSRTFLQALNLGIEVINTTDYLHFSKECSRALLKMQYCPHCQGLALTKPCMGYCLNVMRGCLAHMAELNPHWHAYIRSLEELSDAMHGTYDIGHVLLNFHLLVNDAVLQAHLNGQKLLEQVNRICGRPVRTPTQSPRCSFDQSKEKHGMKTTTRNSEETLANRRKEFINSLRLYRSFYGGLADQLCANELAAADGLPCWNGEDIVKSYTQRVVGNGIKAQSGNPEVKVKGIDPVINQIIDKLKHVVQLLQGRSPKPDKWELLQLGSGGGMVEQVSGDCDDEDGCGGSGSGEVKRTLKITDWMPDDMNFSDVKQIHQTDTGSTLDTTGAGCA

T2: recombinant human GPC6-His (human, UniProt Q9Y625 24-529, limits assumed)
T2 construct: Bought protein; also called RD System Cat #2845-GP; not shown: His tag
T2 sequence (looked up): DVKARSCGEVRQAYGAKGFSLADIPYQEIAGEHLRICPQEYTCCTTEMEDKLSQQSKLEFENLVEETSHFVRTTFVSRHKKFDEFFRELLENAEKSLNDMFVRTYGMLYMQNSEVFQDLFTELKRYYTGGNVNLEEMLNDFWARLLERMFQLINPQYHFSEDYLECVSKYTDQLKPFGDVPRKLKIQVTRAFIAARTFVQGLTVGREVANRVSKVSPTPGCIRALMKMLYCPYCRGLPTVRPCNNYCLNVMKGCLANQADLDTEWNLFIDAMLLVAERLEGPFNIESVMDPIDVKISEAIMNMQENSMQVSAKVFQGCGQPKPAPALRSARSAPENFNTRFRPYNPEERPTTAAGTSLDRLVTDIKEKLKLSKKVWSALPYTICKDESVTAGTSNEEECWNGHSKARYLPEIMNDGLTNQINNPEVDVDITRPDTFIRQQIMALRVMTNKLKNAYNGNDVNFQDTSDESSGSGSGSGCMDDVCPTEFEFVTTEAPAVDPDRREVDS


Columns and labels:
[1] = target: T3, recombinant human GPC3-His (human, UniProt P51654 25-559); assay: ELISA, plate coated with 2 ug/mL rhGPC3-his, VHH-hIgG1Fc detected with HRP goat anti-human IgG, OD450
T3 construct: Bought protein; also called ACRO Cat #GP3-H5223; not shown: His tag
T3 sequence (P51654 25-559 limits assumed): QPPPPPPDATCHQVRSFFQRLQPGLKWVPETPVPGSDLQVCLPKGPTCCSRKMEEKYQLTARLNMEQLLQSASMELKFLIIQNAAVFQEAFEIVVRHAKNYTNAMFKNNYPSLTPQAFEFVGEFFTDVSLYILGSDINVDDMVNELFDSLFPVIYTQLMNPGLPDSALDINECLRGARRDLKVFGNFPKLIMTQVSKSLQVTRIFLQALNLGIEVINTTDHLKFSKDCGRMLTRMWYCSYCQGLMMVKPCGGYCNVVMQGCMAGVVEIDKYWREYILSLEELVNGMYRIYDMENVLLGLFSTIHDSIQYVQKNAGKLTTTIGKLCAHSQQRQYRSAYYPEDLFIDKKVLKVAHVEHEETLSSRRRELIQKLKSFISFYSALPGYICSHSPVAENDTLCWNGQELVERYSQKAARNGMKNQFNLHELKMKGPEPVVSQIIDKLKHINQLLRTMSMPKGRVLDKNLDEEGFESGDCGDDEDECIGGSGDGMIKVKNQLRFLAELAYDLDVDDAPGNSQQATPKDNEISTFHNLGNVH
Description: (§1) To evaluate the specificity of humanized anti-GPC2 VHH5 to recombinant human GPC2 protein, an ELISA-based binding assay was conducted to determine the differential target proteins binding of anti-GPC2 VHH5. Briefly, microplates were coated with 2 μg/mL recombinant human GPC1-His (RD System, Cat #4519-GP), GPC2-His (RD System, Cat #2304-GP), GPC3-His (ACRO, Cat #GP3-H5223), GPC4-Fc (RD System, Cat #9195-GP), GPC5-His (RD System, Cat #2607-G5/CF), GPC6-His (RD System, Cat #2845-GP) or recombinant mouse GPC2-His (RD System, Cat #2355-GP) proteins. Recombinant human protein coated plates were blocked with skim milk. Serially diluted humanized VHH-hIgG1Fc recombinant antibodies were added to each well of the plates and incubated at 4° C. for 1.5 h. Samples were further labelled with HRP-conjugated goat anti human IgG (H+L) secondary antibody (Genescript, Cat #A00166-1) and signal was developed with 3,3′,5,5′-Tetramethylbenzidine (TMB) substrate according to manufacturer's instruction. For the GPC4, VHH-His recombinant antibodies and anti-His tag secondary antibody (Genescript, Cat #A00612) were added to the GPC4-Fc coated plates instead. Optic density at 450 nm was measured by plate reader.

[2] = target: T1, recombinant human GPC5-His; assay: ELISA, plate coated with 2 ug/mL rhGPC5-his, VHH-hIgG1Fc detected with HRP goat anti-human IgG, OD450
Description: as §1

[3] = target: T2, recombinant human GPC6-His; assay: ELISA, plate coated with 2 ug/mL rhGPC6-his, VHH-hIgG1Fc detected with HRP goat anti-human IgG, OD450
Description: as §1

Row | binding result [1] | binding result [2] | binding result [3] | Binder
1 | no binding (tested: about 300 nM) | no binding (tested: about 300 nM) | no binding (tested: about 300 nM) | AS70950VH6-hIgG1Fc (Fc fusion, also called anti-GPC2 VHH-hIgG1Fc; not shown: human IgG1 Fc fragment (hIgG1Fc)) EVQLVESGGGLVQPGGSLRLSCAISEFTYKNTCVGWFRQAPGKGREGVAAIDSDGNTNYVDSVKGRFTISQDNSKNTVYLQMNSLRAEDTAMYYCAAGAYCGRLLLWIGNYAYWGQGTLVTVSS
2 | no binding (tested: about 300 nM) | no binding (tested: about 300 nM) | no binding (tested: about 300 nM) | AS78117VH4-hIgG1Fc (Fc fusion, also called anti-GPC2 VHH-hIgG1Fc; not shown: human IgG1 Fc fragment (hIgG1Fc)) EVQLVESGGGLVQPGGSLRLSCIVSRYTYATYSMAWFRQAPGKGLEGVSGLDSVGATGYAESVKGRFTISRDNSKNTLYLQMNSLRAEDTAVYYCVVDPASAKVTYGSWSTPSYAYWGQGTLVTVSS
3 | no binding (tested: about 300 nM) | no binding (tested: about 300 nM) | no binding (tested: about 300 nM) | AS79236VH6-hIgG1Fc (Fc fusion, also called anti-GPC2 VHH-hIgG1Fc; not shown: human IgG1 Fc fragment (hIgG1Fc)) EVQLVESGGGLVQPGGSLRLSCAVSGYTYSSYCMAWFRQAPGKGLEGVASIDAGGRTTYVDSVKGRFTISKDNAKNSLYLQMNSLRAEDTAMYYCAVDVRTRCGGTWDGEAVYFPYWGQGTLVTVSS
